# Key:
# integrin αvβ5 on cells [1] = biological target: T1, integrin αvβ5 on cells (human, UniProt P06756 31-1048; P18084 24-799); experiment: live cell flow cytometry on A549, 10 µg/ml antibody; relative to second layer alone
# T1 construct: whole, on cells; Endogenous integrin of live cells (FACS) or of FFPE cells and xenografts (IHC)
# integrin αvβ5 on cells [2] = biological target: T1, integrin αvβ5 on cells; experiment: live cell flow cytometry on HT-29, 10 µg/ml antibody; relative to second layer alone
# integrin αvβ5 on cells [3] = biological target: T1, integrin αvβ5 on cells; experiment: live cell flow cytometry on M21, 10 µg/ml antibody; relative to second layer alone
# integrin αvβ5 on cells [4] = biological target: T1, integrin αvβ5 on cells; experiment: live cell flow cytometry on HUVEC, 10 µg/ml antibody; relative to second layer alone
# integrin αvβ5 on cells [5] = biological target: T1, integrin αvβ5 on cells; experiment: live cell flow cytometry on M24Met, 10 µg/ml antibody; relative to second layer alone
# [6] = biological target: integrin β1 chain on cells (UniProt P05556); experiment: live cell flow cytometry on M21, 10 µg/ml antibody; relative to second layer alone
# integrin β1 chain on cells, sequence (P05556 21-798 limits assumed): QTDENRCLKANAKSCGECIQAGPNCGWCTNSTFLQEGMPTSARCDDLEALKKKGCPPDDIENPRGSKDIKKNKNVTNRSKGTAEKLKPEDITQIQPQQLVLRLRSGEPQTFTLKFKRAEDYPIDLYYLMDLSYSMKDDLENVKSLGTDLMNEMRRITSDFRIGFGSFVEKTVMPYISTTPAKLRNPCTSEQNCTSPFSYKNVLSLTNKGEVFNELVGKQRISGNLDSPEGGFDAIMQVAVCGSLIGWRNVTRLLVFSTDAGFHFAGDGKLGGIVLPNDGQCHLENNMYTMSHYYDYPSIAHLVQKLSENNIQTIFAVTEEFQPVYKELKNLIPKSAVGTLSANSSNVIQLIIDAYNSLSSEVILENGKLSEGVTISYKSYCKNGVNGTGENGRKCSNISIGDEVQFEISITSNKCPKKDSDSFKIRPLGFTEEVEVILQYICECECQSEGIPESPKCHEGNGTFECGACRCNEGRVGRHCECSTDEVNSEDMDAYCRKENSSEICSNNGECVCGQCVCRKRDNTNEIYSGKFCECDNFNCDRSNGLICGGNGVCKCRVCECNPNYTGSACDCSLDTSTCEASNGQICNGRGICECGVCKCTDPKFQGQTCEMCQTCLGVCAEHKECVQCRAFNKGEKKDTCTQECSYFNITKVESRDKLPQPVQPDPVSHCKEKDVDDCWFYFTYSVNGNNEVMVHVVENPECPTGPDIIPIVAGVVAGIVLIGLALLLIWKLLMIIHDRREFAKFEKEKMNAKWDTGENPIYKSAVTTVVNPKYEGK
# [7] = biological target: integrin β1 chain on cells (UniProt P05556); experiment: live cell flow cytometry on A549, 10 µg/ml antibody; relative to second layer alone
# [8] = biological target: integrin β1 chain on cells (UniProt P05556); experiment: live cell flow cytometry on HT-29, 10 µg/ml antibody; relative to second layer alone
# [9] = biological target: integrin β1 chain on cells (UniProt P05556); experiment: live cell flow cytometry on HUVEC, 10 µg/ml antibody; relative to second layer alone
# [10] = biological target: integrin β1 chain on cells (UniProt P05556); experiment: live cell flow cytometry on M21-L, 10 µg/ml antibody; relative to second layer alone
# [11] = biological target: integrin β1 chain on cells (UniProt P05556); experiment: live cell flow cytometry on M24Met, 10 µg/ml antibody; relative to second layer alone
# [12] = biological target: integrin β1 chain on cells (UniProt P05556); experiment: live cell flow cytometry on M21-Gpiib, 10 µg/ml antibody; relative to second layer alone
# integrin αvβ3 on cells [13] = biological target: T2, integrin αvβ3 on cells (human, UniProt P06756 31-1048; P05106 27-788); experiment: live cell flow cytometry on M21, 10 µg/ml antibody; relative to second layer alone
# T2 construct: whole, on cells; Endogenous integrin of live cells (FACS) or of formalin fixed paraffin embedded cells and xenografts (IHC); the cell line is named under assay; also called αvβ3 complex
# Protocol: (§1) Cells in log growth were harvested using trypsin (0.5 μg/ml)/EDTA (0.2 μg/ml), washed in FACS buffer (PBS plus 0.9 mM CaCl₂; 0.5 mM MgCl₂; 0.5% w/v BSA), and incubated with anti-integrin antibodies (60 min; 4° C.; 10 μg/ml in FACS buffer). […] Cells were analyzed on a FACScan (Becton-Dickinson) and the mean intensity fluorescence (MIF) was normalized to the MIF of the negative control (cells stained with PI and secondary labeled antibody, without primary antibody).
# (§2) The RabMabs were assessed in FACS compared to standard well characterized murine monoclonal antibodies.
# integrin αvβ3 on cells [14] = biological target: T2, integrin αvβ3 on cells; experiment: live cell flow cytometry on HUVEC, 10 µg/ml antibody; relative to second layer alone
# Protocol: as §1, §2
# integrin αvβ3 on cells [15] = biological target: T2, integrin αvβ3 on cells; experiment: live cell flow cytometry on M24Met, 10 µg/ml antibody; relative to second layer alone
# Protocol: as §1, §2
# [16] = biological target: T3, integrin αv chain on cells (human, UniProt P06756 31-1048); experiment: live cell flow cytometry on M21, 10 µg/ml antibody; relative to second layer alone
# T3 construct: whole, on cells; Endogenous αv of live cells (FACS) or FFPE cells and xenografts (IHC); also called Human αv; αv-integrin
# Protocol: as §1, §2
# [17] = biological target: T3, integrin αv chain on cells; experiment: live cell flow cytometry on M24Met, 10 µg/ml antibody; relative to second layer alone
# Protocol: as §1, §2
# [18] = biological target: T4, recombinant human integrin αvβ3 extracellular domain (DTM-αvβ3) (human, UniProt P06756 31-992); experiment: ELISA, integrin coated at 1 µg/ml, antibody serially diluted
# T4 construct: extracellular domain; Heterodimer made in High Five insect cells with baculovirus; also called Human αvβ3 ECD
# Protocol: (§3) Recombinant integrins (1 μg/ml) were coated on microtiter plates by adsorption (4° C.; 16 h) from coating buffer (150 mM NaCl; 1 mM CaCl₂; 1 mM MgCl₂; 10 μM MnCl₂; 50 mM Tris-Cl; pH 7.5). The plates were washed (wash buffer: 0.5% BSA; 0.05% Tween 20 in PBS), blocked (1 h; 4° C.; 5% BSA in PBS), and incubated with primary antibodies serially diluted in wash buffer (1 h; 37° C.). After washing, secondary detection antibody (goat-anti-rabbit HRP; 1:5000) was added (1 h; 37° C.), followed by washing and detection using tetramethyl-benzidine (100 μg/ml) in citrate-phosphate buffer (pH 5.0), development with sulphuric acid, and reading against a reagent blank at 450 nm.
# [19] = biological target: T5, full length human gpiibiiia purified from platelets (human, UniProt P08514 32-1039; P05106 27-788); experiment: as above
# T5 construct: mature; Extracted from outdated human platelets with octylglucoside; also called intact αiibβ3; full length purified platelet gpiibiiia
# Protocol: as §3
# [20] = biological target: T6, integrin αiibβ3 on M21-gpiib melanoma cells (UniProt P08514 32-1039; P05106 27-788); experiment: live cell flow cytometry on M21-Gpiib, 10 µg/ml antibody; relative to second layer alone
# T6 construct: whole, on cells
# Protocol: as §1, §2
# [21] = biological target: T4, recombinant human integrin αvβ3 …; experiment: ELISA, integrin coated at 1 µg/ml
# Protocol: as §3
# [22] = biological target: T5, full length human gpiibiiia purified …; experiment: ELISA, integrin coated at 1 µg/ml
# Protocol: as §3
# [23] = biological target: T7, recombinant human integrin αvβ5 extracellular domain (DTM-αvβ5) (human, UniProt P06756 31-992); experiment: ELISA, integrin coated at 1 µg/ml, antibody serially diluted
# T7 construct: extracellular domain; Heterodimer made in High Five insect cells; also called Human αvβ5 ECD
# Protocol: as §3
# [24] = biological target: T7, recombinant human integrin αvβ5 …; experiment: ELISA, hybridoma supernatants on the recombinant αvβ5 extracellular domain (FIG. 10)
# [25] = biological target: T4, recombinant human integrin αvβ3 …; experiment: ELISA, hybridoma supernatants on recombinant αvβ3 against αvβ5 extracellular domains (FIG. 10)
# [26] = biological target: T6, integrin αiibβ3 on M21-gpiib melanoma …; experiment: live cell flow cytometry on M21-gpiib melanoma cells
# Protocol: as §1, §2
# [27] = biological target: recombinant human integrin αvβ6 extracellular domain (DTM-αvβ6) (human) (UniProt P18564); experiment: ELISA, integrin coated at 1 µg/ml, antibody serially diluted
# [28] = biological target: T8, recombinant human integrin αvβ8 extracellular domain (DTM-αvβ8) (human, UniProt P06756 31-992); experiment: as above
# T8 construct: extracellular domain; Heterodimer made in High Five insect cells; also called Human αvβ8 ECD
# Protocol: as §3
# [29] = biological target: T3, integrin αv chain on cells; experiment: live cell flow cytometry on HUVEC, 10 µg/ml antibody; relative to second layer alone
# Protocol: as §1, §2
molecule,measurement,setting,value
P1F6 (antibody),rMIF,integrin αvβ5 on cells [1],3.6
same,rMIF,integrin αvβ5 on cells [2],3.2
same,rMIF,integrin αvβ5 on cells [3],3.8
same,rMIF,integrin αvβ5 on cells [4],2.7
same,rMIF,integrin αvβ5 on cells [5],3.8
P4C10 (antibody),rMIF,[6],7.2
same,rMIF,[7],7.5
same,rMIF,[8],14.5
same,rMIF,[9],38.9
same,rMIF,[10],12.1
same,rMIF,[11],14
same,rMIF,[12],10.8
"LM609 (antibody, V domains shown) VH: EVQLVESGGGLVKPGRSLRLSCAASGFAFSSYDMSWVRQIPEKRLEWVAKVSSGGGSTYYLDTVQGRFTISRDNAKNTLYLQMSSLNSEDTAMYYCARHNYGSFAYWGQGTLVTVSA VL: DIVLTQSPATLSVTPGDSVSLSCQASQSISNHLHWYQQKSHESPRLLIKYRSQSISGIPSRFSGSGSGTDFALSINSVETEDFGMYFCQQSGSWPHTFGGGTKLEIK",rMIF,integrin αvβ3 on cells [13],9.1
same,rMIF,integrin αvβ3 on cells [14],10.7
same,rMIF,integrin αvβ3 on cells [15],4.9
"17E6 (antibody, V domains shown) VH: QVQLQQSGAELAEPGASVKMSCKASGYTFSSFWMHWVKQRPGQGLEWIGYINPRSGYTECNEIFRDKATMTADTSSSTAYMQLSGLTSEDSAVYYCASFLGRGAMDYWGQGTSVTVSS VL: DIQMTQTTSSLSASLGDRVIISCRASQDISNYLSWYQQKPDGTVKLLIFYTSKLHSGVPSRFSGSGSGTDYSLTISNLDQEDIATYFCQQGNTFPYTFGGGTKVEMR",rMIF,[16],9.3
same,rMIF,[17],7.8
"EM22703 (antibody, V domains shown, Rabbit monoclonal; Hybridoma and recombinant forms are kept as one molecule) VH: QSVKESEGGLFKPTDTLILTCTVSGFSLSSYGVSWVRQAPGNGLEYIGSISTTGITYYASWAKSRSTITRNTNLYTVTLKMTGLTAADTATYFCARGFPGHLRKPSDIWGPGTLVTVSA VL: AQVLTQTPSSVSAAVGGTVSISCQSSESVYADIALSWFQQKPGQPPKLLIYGASTLASGVPSRFSGSGSGTEFTLTISDVQCDAAATYYCAGDYGAGTEPNLFGGGTEVVVSG",IC50,[18],1.4 ng/mL
same,IC50,[19],0.00085 µg/mL
same,rMIF,integrin αvβ3 on cells [13],17.6
same,rMIF,integrin αvβ3 on cells [14],12.4
same,rMIF,integrin αvβ3 on cells [15],8.1
same,rMIF,[20],56
"EM09902 (antibody, V domains shown, Rabbit monoclonal; Hybridoma and recombinant forms are kept as one molecule; also called E3536-99-1; E3536-99-2) VH: QEQLEESGGGLVQPEGSLTLTCTVSGFPLRNVWISWVRQAPGKGLEWIGCIYTGRDWPYYASWAKGRFTISKSSSTTVTLQMTSLTATDTATYFCARIVYGGAGYRLWGPGTLVTVSS VL: ALVMTQTPPSVEAAVGGTVTINCQASQDIGSDLAWYQQKPGQPPKLLIYSASSLASGVPSRFKASGSGTQFTLTISDVQCDDAATYSCAGYKSYSDDGHGFGGGTEVVVKG","cross-reactivity, fold in IC50 against the immunogen",[21],~100 fold
same,"cross-reactivity, fold in IC50 against the immunogen",[22],~100 fold
same,IC50,[18],~450 ng/mL
same,IC50,[23],5.6 ng/mL
same,IC50,[19],~0.4 µg/mL
same,EC50,[24],0.05 nM
same,rMIF,integrin αvβ5 on cells [3],7.2
same,rMIF,integrin αvβ5 on cells [4],33.9
same,rMIF,integrin αvβ5 on cells [5],40.1
same,rMIF,[20],1.9
same,"factor in apparent Kd, αvβ5 over αvβ3",[25],> 100 fold
"EM01309 (antibody, V domains shown, Rabbit IgG monoclonal; Hybridoma and recombinant forms are kept as one molecule; also called E3875-013-9; E3875-13-9) VH: QSVEESGGRLVTPGTSLTLTCTVSGIDLTSNSLSWVRQAPGKGLEWIGAISSRATTYFAAWAKGRFTISRTSTTVDLRITSLTASDTATYFCGKFNLWGQGTLVTVSS VL: AQVLTQTPSSVSAAVGGTVTINCQASQSVASNNALAWFQQKPGQPPKLLIYYASTLASGVPSRFKGSGSGTQFTLTISDLECADAATYYCLGGYDCRGTDCNVFGGGTEVVVKG",binding result,[26],no binding (tested: 10 µg/ml)
same,IC50,[27],4.9 ng/mL
same,IC50,[18],4.7 ng/mL
same,IC50,[23],5.6 ng/mL
same,IC50,[28],4.1 ng/mL
same,rMIF,[16],1.3
same,rMIF,[29],28.8
same,rMIF,[17],2.5
same,rMIF,[20],1

# Reference: patent US20120171699A1 (Merck KGaA, published 2012)
